Molecular target: human complement C3a (human, UniProt P01024 672-748)
Assay: cryo-EM structure

human complement C3a, sequence (P01024 672-748): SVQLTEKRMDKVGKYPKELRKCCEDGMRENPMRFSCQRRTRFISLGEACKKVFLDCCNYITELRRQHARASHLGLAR

binding result: binds
B1: human complement C3a receptor (C3aR), full-length, FLAG-M4(2-23)-C3aR construct for cryo-EM (receptor, UniProt P08173 2-23, looked up)
chain: ANFTPVNGSSGNQSVRLVTSSSMASFSAETNSTDLLSQPWNEPPVILSMVILSLTFLLGLPGNGLVLWVAGLKMQRTVNTIWFLHLTLADLLCCLSLPFSLAHLALQGQWPYGRFLCKLIPSIIVLNMFASVFLLTAISLDRCLVVFKPIWCQNHRNVGMACSICGCIWVVAFVMCIPVFVYREIFTTDNHNRCGYKFGLSSSLDYPDFYGDPLENRSLENIVQPPGEMNDRLDPSSFQTNDHPWTVPTVFQPQTFQRPSADSLPRGSARLTSQNLYSNVFKPADVVSPKIPSGFPIEDHETSPLDNSDAFLSTHLKLFPSASSNSFYESELPQGFQDYYNLGQFTDDDQVPTPLVAITITRLVVGFLLPSVIMIACYSFIVFRMQRGRFAKSQSKTFRVAVVVVAVFLVCWTPYHIFGVLSLLTDPETPLGKTLMSWDHVCIALASANSCFNPFLYALLGKDFRKKARQSIQGILEAAFSEELTRSTHCPSNNVISERNSTTV
modifications: alkylated with iodoacetamide
